Results published in PMC12416549 (2024).
Substitutions are numbered along the chain they refer to. Numbers in names are those of the source.

B1: K27Y (designed binder)
chain: SMEEEVEKAAKEYEKKKKEAIEKHLEYLKAKDKEAAERFLKELEEAAKEYAKDEAKTMSEEEAKRRAKKYKEKVLLSELSEEEQKEIKEAEEKLVRTILKYVEEAAK
B2: L40V (designed binder)
chain: B1 chain with Y27K, L40V
B3: K17N (designed binder)
chain: B1 chain with K17N, Y27K
B4: L76C (designed binder)
chain: B1 chain with Y27K, L76C
B5: L94C (designed binder)
chain: B1 chain with Y27K, L94C
B6: A47F (designed binder)
chain: B1 chain with Y27K, A47F
B7: V74C (designed binder)
chain: B1 chain with Y27K, V74C
B8: L75S (designed binder)
chain: B1 chain with Y27K, L75S
B9: E22R (designed binder)
chain: B1 chain with E22R, Y27K
B10: K69R (designed binder)
chain: B1 chain with Y27K, K69R
B11: S77M (designed binder)
chain: B1 chain with Y27K, S77M
B12: K107R (designed binder)
chain: B1 chain with Y27K, K107R
B13: R38H (designed binder)
chain: B1 chain with Y27K, R38H
B14: A46H (designed binder)
chain: B1 chain with Y27K, A46H
B15: K93G (designed binder)
chain: B1 chain with Y27K, K93G
B16: F39P (designed binder)
chain: B1 chain with Y27K, F39P
B17: E37Y (designed binder)
chain: B1 chain with Y27K, E37Y
B18: E26W (designed binder)
chain: B1 chain with E26W, Y27K
B19: E12V (designed binder)
chain: B1 chain with E12V, Y27K
B20: F39Y (designed binder)
chain: B1 chain with Y27K, F39Y
B21: A9D (designed binder)
chain: B1 chain with A9D, Y27K
B22: L79Q (designed binder)
chain: B1 chain with Y27K, L79Q
B23: Y13K (designed binder)
chain: B1 chain with Y13K, Y27K
B24: Y13R (designed binder)
chain: B1 chain with Y13R, Y27K
B25: E44M (designed binder)
chain: B1 chain with Y27K, E44M
B26: T97W (designed binder)
chain: B1 chain with Y27K, T97W
B27: A67P (designed binder)
chain: B1 chain with Y27K, A67P
B28: E60F (designed binder)
chain: B1 chain with Y27K, E60F
B29: K48V (designed binder)
chain: B1 chain with Y27K, K48V
B30: L43E (designed binder)
chain: B1 chain with Y27K, L43E
B31: I21M (designed binder)
chain: B1 chain with I21M, Y27K
B32: A55S (designed binder)
chain: B1 chain with Y27K, A55S
B33: L75G (designed binder)
chain: B1 chain with Y27K, L75G
B34: M58F (designed binder)
chain: B1 chain with Y27K, M58F
B35: V6E (designed binder)
chain: B1 chain with V6E, Y27K
B36: A67I (designed binder)
chain: B1 chain with Y27K, A67I
B37: E72A (designed binder)
chain: B1 chain with Y27K, E72A
B38: R66N (designed binder)
chain: B1 chain with Y27K, R66N
B39: K15G (designed binder)
chain: B1 chain with K15G, Y27K
B40: R96W (designed binder)
chain: B1 chain with Y27K, R96W
B41: K29Q (designed binder)
chain: B1 chain with Y27K, K29Q
B42: K11L (designed binder)
chain: B1 chain with K11L, Y27K
B43: E34T (designed binder)
chain: B1 chain with Y27K, E34T
B44: E19G (designed binder)
chain: B1 chain with E19G, Y27K
B45: E104N (designed binder)
chain: B1 chain with Y27K, E104N
B46: E26M (designed binder)
chain: B1 chain with E26M, Y27K
B47: E86H (designed binder)
chain: B1 chain with Y27K, E86H
B48: L94Y (designed binder)
chain: B1 chain with Y27K, L94Y
B49: E86C (designed binder)
chain: B1 chain with Y27K, E86C
B50: K8G (designed binder)
chain: B1 chain with K8G, Y27K
B51: E26T (designed binder)
chain: B1 chain with E26T, Y27K
B52: K31D (designed binder)
chain: B1 chain with Y27K, K31D
B53: E12L (designed binder)
chain: B1 chain with E12L, Y27K
B54: E12F (designed binder)
chain: B1 chain with E12F, Y27K
B55: A35I (designed binder)
chain: B1 chain with Y27K, A35I

Biological target: T1, TNFR1 (Homo sapiens, UniProt P19438)
T1 chain: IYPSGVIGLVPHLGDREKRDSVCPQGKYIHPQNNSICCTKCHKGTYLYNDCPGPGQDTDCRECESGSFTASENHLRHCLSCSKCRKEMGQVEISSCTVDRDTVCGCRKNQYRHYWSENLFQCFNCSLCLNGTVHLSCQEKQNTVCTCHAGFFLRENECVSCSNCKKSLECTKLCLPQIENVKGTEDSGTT
Test: yeast display SC50

B1 and B2 are within 1.5-fold of each other in “apparent Kd (screen)” value: 0.593 nM for the first, 0.49 nM for the second.

B3 and B4 are within 1.5-fold of each other in “apparent Kd (screen)” value: 2.73 nM for the first, 3 nM for the second.

First: B5
Second: B6
The “apparent Kd (screen)” value of the first is 4.6-fold higher: 2.73 nM for the first, 0.593 nM for the second.

Compared with B7, B8 is 6.1-fold lower in “apparent Kd (screen)” value: 4.39 nM for the first, 0.718 nM for the second.

Going from B9 to B10, the “apparent Kd (screen)” value rises from 0.446 nM to 1.27 nM (2.8-fold).

B11 and B12 are within 1.5-fold of each other in “apparent Kd (screen)” value: 1.4 nM for the first, 1.54 nM for the second.

B13 and B14 are within 1.5-fold of each other in “apparent Kd (screen)” value: 1.4 nM for the first, 1.16 nM for the second.

Going from B15 to B16, the “apparent Kd (screen)” value rises from 0.79 nM to 4.83 nM (6.1-fold).

Going from B17 to B18, the “apparent Kd (screen)” value rises from 0.49 nM to 1.05 nM (2.1-fold).

B19 and B20 are within 1.5-fold of each other in “apparent Kd (screen)” value: 0.956 nM for the first, 1.4 nM for the second.

Going from B21 to B22, the “apparent Kd (screen)” value rises from 1.16 nM to 2.48 nM (2.1-fold).

Compared with B23, B24 is 1.8-fold higher in “apparent Kd (screen)” value: 7.07 nM for the first, 12.5 nM for the second.

Compared with B25, B26 is 2.6-fold higher in “apparent Kd (screen)” value: 0.956 nM for the first, 2.48 nM for the second.

Compared with B27, B28 is 1.6-fold higher in “apparent Kd (screen)” value: 0.593 nM for the first, 0.956 nM for the second.

First: B29
Second: B30
The “apparent Kd (screen)” value of the first is 26-fold lower: 0.653 nM for the first, 16.7 nM for the second.

Going from B31 to B32, the “apparent Kd (screen)” value rises from 0.539 nM to 1.69 nM (3.1-fold).

Compared with B33, B34 is 31-fold higher in “apparent Kd (screen)” value: 0.368 nM for the first, 11.4 nM for the second.

Going from B35 to B36, the “apparent Kd (screen)” value falls from 11.4 nM to 7.07 nM (1.6-fold).

Going from B37 to B38, the “apparent Kd (screen)” value rises from 2.73 nM to 16.7 nM (6.1-fold).

Going from B39 to B40, the “apparent Kd (screen)” value rises from 0.653 nM to 2.05 nM (3.1-fold).

B41 and B42 are within 1.5-fold of each other in “apparent Kd (screen)” value: 0.593 nM for the first, 0.49 nM for the second.

B43 and B44 are within 1.5-fold of each other in “apparent Kd (screen)” value: 0.446 nM for the first, 0.49 nM for the second.

B45 and B46 are within 1.5-fold of each other in “apparent Kd (screen)” value: 0.718 nM for the first, 0.539 nM for the second.

Compared with B47, B48 is 3.8-fold lower in “apparent Kd (screen)” value: 1.69 nM for the first, 0.446 nM for the second.

B49 and B50 are within 1.5-fold of each other in “apparent Kd (screen)” value: 0.653 nM for the first, 0.593 nM for the second.

First: B51
Second: B52
The “apparent Kd (screen)” value of the first is 1.6-fold lower: 0.593 nM for the first, 0.956 nM for the second.

B53 and B54 are within 1.5-fold of each other in “apparent Kd (screen)” value: 0.49 nM for the first, 0.539 nM for the second.

With B55 the “apparent Kd (screen)” value was 0.539 nM.
